The values that follow come from US20210171613A1 (NATIONAL RESEARCH COUNCIL OF CANADA, published 2021).

Bounds are passed on as bounds.

The target of experiment [1] is T1, Clostridium difficile toxin A (TcdA) (Clostridium difficile, UniProt P16154 1-2710).
T1 construct: mature; also called full-length TcdA
Put plainly: SPR on immobilized TcdA. As to the method:
(§1) Before surface plasmon resonance (SPR) binding experiments, IMAC-purified VHHs were subjected to de-salting and further purification by size-exclusion chromatography (SEC). Approximately 500 μg of each VHH was injected over a Superdex 75 Increase 10/300 GL SEC column (GE Healthcare) in Biacore running buffer HBS-EP (10 mM HEPES pH 7.4, 150 mM NaCl, 3 mM EDTA, 0.005% (v/v) P20; GE Healthcare) under the control of an ÄKTA FPLC at 0.8 mL/min. Monomeric VHH fractions were collected and analyzed for binding to TcdA using a Biacore 3000 SPR instrument (GE Healthcare). Approximately 4,500 resonance units (RUs) of TcdA (List Biological Laboratories, Campbell, Calif.) were immobilized on a CM5 sensor chip (GE Healthcare) using the conditions previously described (Hussack et al, 2011). HBS-EP running buffer was used for all binding studies and regeneration of TcdA surfaces. Next, various dilution ranges of VHHs (as low as 10 nM-0.5 nM to as high as 5 μM-50 nM) were injected over immobilized TcdA at a flow rate of 40 μL/min with 120 s contact time and 600 s dissociation. Reference-subtracted sensorgrams were analyzed with BIAevaluation software (GE Healthcare) and fit to a 1:1 binding model. In cases where rapid kₒₙ and koff rate constants were observed, equilibrium dissociation constants (KDs) were determined by steady-state analysis.
The location of these mutations relative to the antigen epitope is illustrated in FIG. 2C.

For experiment [2], the target named is T1, Clostridium difficile toxin A (TcdA). The experiment is described as follows: SPR (Biacore 3000), VHH over immobilized TcdA, 1:1 fit. How it is done:
as §1

For experiment [3] the target is unchanged. The experiment is described as follows: SPR (Biacore 3000), VHH over immobilized TcdA; ratio of parent KD to mutant KD. As to the method:
as §1
In general terms: SPR reads the build-up and loss of mass on a sensor chip optically.

Experiment [4] has the same target. The experiment is described as follows: SPR (Biacore 3000), VHH over immobilized TcdA; binding free energy difference relative to parent VHH. How it is done: as §1

T1 sequence (P16154 whole entry): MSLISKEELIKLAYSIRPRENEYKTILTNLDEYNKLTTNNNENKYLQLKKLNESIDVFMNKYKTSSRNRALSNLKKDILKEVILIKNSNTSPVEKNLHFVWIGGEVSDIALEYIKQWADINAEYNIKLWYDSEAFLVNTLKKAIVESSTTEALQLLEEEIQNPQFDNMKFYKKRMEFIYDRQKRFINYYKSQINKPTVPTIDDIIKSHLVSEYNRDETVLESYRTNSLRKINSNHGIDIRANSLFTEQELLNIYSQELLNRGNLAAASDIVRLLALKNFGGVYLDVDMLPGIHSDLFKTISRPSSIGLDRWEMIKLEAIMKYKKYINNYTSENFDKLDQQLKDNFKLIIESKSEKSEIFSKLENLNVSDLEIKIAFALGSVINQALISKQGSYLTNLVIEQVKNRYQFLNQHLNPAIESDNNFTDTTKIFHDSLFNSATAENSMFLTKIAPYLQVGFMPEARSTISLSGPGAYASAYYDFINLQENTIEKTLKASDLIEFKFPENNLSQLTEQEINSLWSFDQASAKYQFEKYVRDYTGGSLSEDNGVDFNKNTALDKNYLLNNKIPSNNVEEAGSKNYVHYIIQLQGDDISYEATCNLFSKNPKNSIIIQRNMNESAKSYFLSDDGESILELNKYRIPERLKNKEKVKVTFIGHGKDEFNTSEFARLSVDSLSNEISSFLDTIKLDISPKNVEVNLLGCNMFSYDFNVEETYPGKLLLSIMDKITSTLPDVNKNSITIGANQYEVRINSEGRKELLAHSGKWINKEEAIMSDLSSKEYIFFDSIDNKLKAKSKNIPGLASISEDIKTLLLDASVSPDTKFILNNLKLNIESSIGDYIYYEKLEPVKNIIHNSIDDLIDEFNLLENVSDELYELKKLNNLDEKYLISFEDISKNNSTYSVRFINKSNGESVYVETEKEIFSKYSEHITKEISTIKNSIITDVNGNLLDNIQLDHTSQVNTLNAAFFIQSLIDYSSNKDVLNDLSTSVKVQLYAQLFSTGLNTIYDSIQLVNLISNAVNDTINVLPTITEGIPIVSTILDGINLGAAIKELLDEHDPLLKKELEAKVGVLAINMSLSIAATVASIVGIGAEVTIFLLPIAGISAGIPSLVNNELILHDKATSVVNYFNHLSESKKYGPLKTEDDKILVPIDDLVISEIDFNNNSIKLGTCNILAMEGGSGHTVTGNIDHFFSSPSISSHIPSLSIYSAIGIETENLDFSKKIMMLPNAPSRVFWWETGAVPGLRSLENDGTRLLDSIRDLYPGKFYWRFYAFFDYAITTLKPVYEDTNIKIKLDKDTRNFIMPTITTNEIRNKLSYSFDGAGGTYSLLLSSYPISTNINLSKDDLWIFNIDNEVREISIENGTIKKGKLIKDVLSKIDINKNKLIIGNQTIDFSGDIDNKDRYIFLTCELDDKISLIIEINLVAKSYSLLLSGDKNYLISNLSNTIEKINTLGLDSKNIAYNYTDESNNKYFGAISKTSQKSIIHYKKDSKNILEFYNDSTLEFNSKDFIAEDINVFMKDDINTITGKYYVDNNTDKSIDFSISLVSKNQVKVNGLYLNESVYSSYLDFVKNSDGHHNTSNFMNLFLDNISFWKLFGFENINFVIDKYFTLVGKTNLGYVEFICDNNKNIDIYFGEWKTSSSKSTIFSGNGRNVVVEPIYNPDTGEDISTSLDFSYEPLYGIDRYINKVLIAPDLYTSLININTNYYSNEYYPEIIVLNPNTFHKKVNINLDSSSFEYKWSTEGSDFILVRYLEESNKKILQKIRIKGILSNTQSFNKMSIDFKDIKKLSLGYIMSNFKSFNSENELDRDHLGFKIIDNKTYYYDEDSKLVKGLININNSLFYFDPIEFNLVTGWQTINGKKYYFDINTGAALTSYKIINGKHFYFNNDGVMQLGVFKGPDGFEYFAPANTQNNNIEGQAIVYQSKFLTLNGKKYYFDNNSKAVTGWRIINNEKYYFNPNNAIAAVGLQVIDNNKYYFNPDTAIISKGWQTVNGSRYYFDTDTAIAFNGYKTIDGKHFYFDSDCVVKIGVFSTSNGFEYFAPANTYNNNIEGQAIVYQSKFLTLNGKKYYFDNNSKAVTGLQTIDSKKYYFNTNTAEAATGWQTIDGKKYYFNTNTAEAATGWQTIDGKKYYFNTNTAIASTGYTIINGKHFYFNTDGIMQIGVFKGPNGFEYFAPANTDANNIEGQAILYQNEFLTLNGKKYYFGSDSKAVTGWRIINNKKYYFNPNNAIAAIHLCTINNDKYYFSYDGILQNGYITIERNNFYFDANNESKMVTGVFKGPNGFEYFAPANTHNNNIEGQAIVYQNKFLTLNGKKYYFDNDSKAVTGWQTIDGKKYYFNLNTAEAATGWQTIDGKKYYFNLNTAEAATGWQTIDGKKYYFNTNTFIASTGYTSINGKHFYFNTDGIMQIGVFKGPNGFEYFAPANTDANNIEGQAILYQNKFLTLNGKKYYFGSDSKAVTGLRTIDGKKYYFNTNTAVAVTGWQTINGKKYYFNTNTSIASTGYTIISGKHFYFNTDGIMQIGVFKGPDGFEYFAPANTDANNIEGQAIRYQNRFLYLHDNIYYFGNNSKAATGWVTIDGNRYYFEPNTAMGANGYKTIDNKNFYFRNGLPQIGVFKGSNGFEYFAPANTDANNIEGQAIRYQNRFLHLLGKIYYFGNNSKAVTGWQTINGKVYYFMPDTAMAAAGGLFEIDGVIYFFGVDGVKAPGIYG

B1: A26.8 VHH mutant D107N (VHH, not shown: small tags and cut ends)
VHH: QVKLEESGGGLVQAGGSLRLSCAASERTFSRYPVAWFRQAPGAEREFVAVISSTGTSTYYADSVKGRFTISRDNAKVTVYLQMNNLKREDTAVYFCAVNSQRTRLQNPNEYDYWGQGTQVTVSS
Turning to B1, the “fold decrease in affinity relative to parent A26.8 VHH” value in experiment [1] is at most 2.5 fold. In experiment [2], binding was put at a Kd of 21.3 nM; the koff (commonly the rate constant with which the complex falls apart) is 0.0402 s⁻¹; the kon (in general, the rate constant with which the complex forms) came out at 1.92e+06 M⁻¹ s⁻¹. The “KD^WT/KD” value in experiment [3] worked out at 0.9. Moreover, the ΔΔG in experiment [4] was 0.08 kcal/mol.

B2: A26.8 VHH mutant D107R (VHH, not shown: small tags and cut ends)
VHH: QVKLEESGGGLVQAGGSLRLSCAASERTFSRYPVAWFRQAPGAEREFVAVISSTGTSTYYADSVKGRFTISRDNAKVTVYLQMNNLKREDTAVYFCAVNSQRTRLQRPNEYDYWGQGTQVTVSS
Consider B2, for which, in experiment [1], the “fold decrease in affinity relative to parent A26.8 VHH” value was at most 2.5 fold. Besides, in experiment [2], the dissociation constant Kd (as a rule, the constant that tells how readily two partners part at equilibrium) was determined as 19 nM; the koff amounted to 0.0259 s⁻¹; the kon is 1.39e+06 M⁻¹ s⁻¹. Also, the “KD^WT/KD” value in experiment [3] worked out at 1. Further, the ΔΔG in experiment [4] was found to be 0.01 kcal/mol.

B3: A26.8-T56R, T103K (VHH, not shown: small tags and cut ends)
VHH: QVKLEESGGGLVQAGGSLRLSCAASERTFSRYPVAWFRQAPGAEREFVAVISSTGRSTYYADSVKGRFTISRDNAKVTVYLQMNNLKREDTAVYFCAVNSQRKRLQDPNEYDYWGQGTQVTVSS
In experiment [2], B3 registered a Kd of 3.44 nM, a koff of 0.0291 s⁻¹ and a kon of 8.61e+06 M⁻¹ s⁻¹. The “KD^WT/KD” value in experiment [3] stood at 5.4. In addition, the ΔΔG in experiment [4] was -0.99 kcal/mol.

B4: A26.8-T56R, T103M (VHH, not shown: small tags and cut ends)
VHH: QVKLEESGGGLVQAGGSLRLSCAASERTFSRYPVAWFRQAPGAEREFVAVISSTGRSTYYADSVKGRFTISRDNAKVTVYLQMNNLKREDTAVYFCAVNSQRMRLQDPNEYDYWGQGTQVTVSS
In the case of B4, in experiment [2], binding was put at a Kd of 4.84 nM, the koff was 0.0304 s⁻¹ and the kon came to 6.42e+06 M⁻¹ s⁻¹. Moreover, in experiment [3], the “KD^WT/KD” value worked out at 3.9. Besides, the ΔΔG in experiment [4] was -0.79 kcal/mol.

B5: A26.8-T56R, Q101K, T103K (VHH, not shown: small tags and cut ends)
VHH: QVKLEESGGGLVQAGGSLRLSCAASERTFSRYPVAWFRQAPGAEREFVAVISSTGRSTYYADSVKGRFTISRDNAKVTVYLQMNNLKREDTAVYFCAVNSKRKRLQDPNEYDYWGQGTQVTVSS
In experiment [2], B5 gave a Kd of 3.19 nM, a koff of 0.0467 s⁻¹ and a kon of 1.47e+07 M⁻¹ s⁻¹. The “KD^WT/KD” value in experiment [3] is 5.9. Besides, the ΔΔG in experiment [4] is -1.03 kcal/mol.

B6: A26.8-T103M (VHH, not shown: small tags and cut ends)
VHH: QVKLEESGGGLVQAGGSLRLSCAASERTFSRYPVAWFRQAPGAEREFVAVISSTGTSTYYADSVKGRFTISRDNAKVTVYLQMNNLKREDTAVYFCAVNSQRMRLQDPNEYDYWGQGTQVTVSS
In experiment [2], B6 showed a dissociation constant (Kd) of 13.7 nM, a koff of 0.0237 s⁻¹ and a kon of 1.77e+06 M⁻¹ s⁻¹. The “KD^WT/KD” value in experiment [3] was determined as 1.4. In addition, the ΔΔG in experiment [4] was -0.18 kcal/mol.

B7: A26.8-T56R, Q101K (VHH, not shown: small tags and cut ends)
VHH: QVKLEESGGGLVQAGGSLRLSCAASERTFSRYPVAWFRQAPGAEREFVAVISSTGRSTYYADSVKGRFTISRDNAKVTVYLQMNNLKREDTAVYFCAVNSKRTRLQDPNEYDYWGQGTQVTVSS
In the case of B7, in experiment [2], the Kd was 4.13 nM, the koff was 0.0497 s⁻¹ and the kon came out at 1.24e+07 M⁻¹ s⁻¹. For the same molecule, the “KD^WT/KD” value in experiment [3] was found to be 4.5. In addition, the ΔΔG in experiment [4] is -0.88 kcal/mol.

B8: A26.8 VHH mutant T54W (VHH, not shown: small tags and cut ends)
VHH: QVKLEESGGGLVQAGGSLRLSCAASERTFSRYPVAWFRQAPGAEREFVAVISSWGTSTYYADSVKGRFTISRDNAKVTVYLQMNNLKREDTAVYFCAVNSQRTRLQDPNEYDYWGQGTQVTVSS
With B8, in experiment [2], the affinity, expressed as Kd, was 35 nM; the off-rate constant (koff) worked out at 0.0561 s⁻¹; the kon stood at 1.61e+06 M⁻¹ s⁻¹. Further, the “KD^WT/KD” value in experiment [3] stood at 0.5. Further, the ΔΔG in experiment [4] was 0.37 kcal/mol.

B9: A26.8-T56R, Q101K, T103M (VHH, not shown: small tags and cut ends)
VHH: QVKLEESGGGLVQAGGSLRLSCAASERTFSRYPVAWFRQAPGAEREFVAVISSTGRSTYYADSVKGRFTISRDNAKVTVYLQMNNLKREDTAVYFCAVNSKRMRLQDPNEYDYWGQGTQVTVSS
In experiment [2], B9 showed a Kd of 2.87 nM, a koff of 0.0296 s⁻¹ and a kon of 1.04e+07 M⁻¹ s⁻¹. In addition, the “KD^WT/KD” value in experiment [3] is 6.5. The ΔΔG in experiment [4] was -1.1 kcal/mol.

B10: A26.8 VHH mutant T54Y (VHH, not shown: small tags and cut ends)
VHH: QVKLEESGGGLVQAGGSLRLSCAASERTFSRYPVAWFRQAPGAEREFVAVISSYGTSTYYADSVKGRFTISRDNAKVTVYLQMNNLKREDTAVYFCAVNSQRTRLQDPNEYDYWGQGTQVTVSS
As for B10, in experiment [2], the Kd was 38.9 nM, the koff was 0.0694 s⁻¹ and the kon worked out at 1.81e+06 M⁻¹ s⁻¹. For the same molecule, the “KD^WT/KD” value in experiment [3] stood at 0.5. Further, the ΔΔG in experiment [4] is 0.43 kcal/mol.

B11: A26.8-T103W (VHH, not shown: small tags and cut ends)
VHH: QVKLEESGGGLVQAGGSLRLSCAASERTFSRYPVAWFRQAPGAEREFVAVISSTGTSTYYADSVKGRFTISRDNAKVTVYLQMNNLKREDTAVYFCAVNSQRWRLQDPNEYDYWGQGTQVTVSS
On to B11, for which, in experiment [2], the dissociation constant (Kd) was 16.3 nM, the off-rate constant (koff) stood at 0.0361 s⁻¹ and the kon stood at 2.39e+06 M⁻¹ s⁻¹. In experiment [3], the “KD^WT/KD” value was determined as 1.1. In addition, the ΔΔG in experiment [4] was -0.08 kcal/mol.

B12: A26.8-Q101K,T103R (VHH, not shown: small tags and cut ends)
VHH: QVKLEESGGGLVQAGGSLRLSCAASERTFSRYPVAWFRQAPGAEREFVAVISSTGTSTYYADSVKGRFTISRDNAKVTVYLQMNNLKREDTAVYFCAVNSKRRRLQDPNEYDYWGQGTQVTVSS
Regarding B12, in experiment [2], the Kd amounted to 4.2 nM, the koff was 0.0226 s⁻¹ and the on-rate constant (kon) came to 5.45e+06 M⁻¹ s⁻¹. For the same molecule, the “KD^WT/KD” value in experiment [3] was 4.5. For the same molecule, in experiment [4], the ΔΔG is -0.87 kcal/mol.

B13: A26.8-T56I (VHH, not shown: small tags and cut ends)
VHH: QVKLEESGGGLVQAGGSLRLSCAASERTFSRYPVAWFRQAPGAEREFVAVISSTGISTYYADSVKGRFTISRDNAKVTVYLQMNNLKREDTAVYFCAVNSQRTRLQDPNEYDYWGQGTQVTVSS
Regarding B13, in experiment [2], the affinity, expressed as Kd, was 13.6 nM; the koff stood at 0.0262 s⁻¹; the kon amounted to 1.94e+06 M⁻¹ s⁻¹. Moreover, the “KD^WT/KD” value in experiment [3] is 1.4. Moreover, the ΔΔG in experiment [4] was -0.19 kcal/mol.

B14: A26.8-T54R (VHH, not shown: small tags and cut ends)
VHH: QVKLEESGGGLVQAGGSLRLSCAASERTFSRYPVAWFRQAPGAEREFVAVISSRGTSTYYADSVKGRFTISRDNAKVTVYLQMNNLKREDTAVYFCAVNSQRTRLQDPNEYDYWGQGTQVTVSS
In experiment [2], B14 had a Kd of 13.2 nM, a dissociation rate constant (koff) of 0.044 s⁻¹ and a kon of 3.55e+06 M⁻¹ s⁻¹. Further, in experiment [3], the “KD^WT/KD” value stood at 1.4. The ΔΔG in experiment [4] is -0.2 kcal/mol.

B15: A26.8-Q101K,T103M (VHH, not shown: small tags and cut ends)
VHH: QVKLEESGGGLVQAGGSLRLSCAASERTFSRYPVAWFRQAPGAEREFVAVISSTGTSTYYADSVKGRFTISRDNAKVTVYLQMNNLKREDTAVYFCAVNSKRMRLQDPNEYDYWGQGTQVTVSS
Consider B15, for which, in experiment [2], the equilibrium dissociation constant (Kd) was 8.02 nM, the koff stood at 0.0265 s⁻¹ and the kon was determined as 3.31e+06 M⁻¹ s⁻¹. For the same molecule, the “KD^WT/KD” value in experiment [3] came out at 2.3. The ΔΔG in experiment [4] is -0.49 kcal/mol.

B16: A26.8-Q101K,T103K (VHH, not shown: small tags and cut ends)
VHH: QVKLEESGGGLVQAGGSLRLSCAASERTFSRYPVAWFRQAPGAEREFVAVISSTGTSTYYADSVKGRFTISRDNAKVTVYLQMNNLKREDTAVYFCAVNSKRKRLQDPNEYDYWGQGTQVTVSS
B16: in experiment [2], binding was characterised by a dissociation constant (Kd) of 8.21 nM, the koff was found to be 0.0396 s⁻¹ and the kon is 4.96e+06 M⁻¹ s⁻¹. The “KD^WT/KD” value in experiment [3] came out at 2.3. Besides, in experiment [4], the ΔΔG is -0.48 kcal/mol.

B17: A26.8-N109R (VHH, not shown: small tags and cut ends)
VHH: QVKLEESGGGLVQAGGSLRLSCAASERTFSRYPVAWFRQAPGAEREFVAVISSTGTSTYYADSVKGRFTISRDNAKVTVYLQMNNLKREDTAVYFCAVNSQRTRLQDPREYDYWGQGTQVTVSS
With B17, in experiment [2], the Kd turned out to be 13.9 nM, the koff came to 0.0268 s⁻¹ and the association rate constant (kon) amounted to 1.95e+06 M⁻¹ s⁻¹. In addition, the “KD^WT/KD” value in experiment [3] is 1.3. In addition, the ΔΔG in experiment [4] was -0.17 kcal/mol.

B18: A26.8-T58K (VHH, not shown: small tags and cut ends)
VHH: QVKLEESGGGLVQAGGSLRLSCAASERTFSRYPVAWFRQAPGAEREFVAVISSTGTSKYYADSVKGRFTISRDNAKVTVYLQMNNLKREDTAVYFCAVNSQRTRLQDPNEYDYWGQGTQVTVSS
In experiment [2], B18 showed a Kd of 13.5 nM, a koff of 0.0327 s⁻¹ and a kon of 2.47e+06 M⁻¹ s⁻¹. Further, the “KD^WT/KD” value in experiment [3] stood at 1.4. For the same molecule, the ΔΔG in experiment [4] is -0.19 kcal/mol.
